According to article PMC10029098:

Assays:
[1] = target: PD1 (Homo sapiens), Q15116; experiment: ELISA PD1/PDL1 blocking; settings: modification not given
[2] = target: PD1 (Homo sapiens), Q15116; experiment: competitive binding kinetics; settings: modification not given

Sequence of PD1 (Homo sapiens), Q15116 (Q15116 25-170): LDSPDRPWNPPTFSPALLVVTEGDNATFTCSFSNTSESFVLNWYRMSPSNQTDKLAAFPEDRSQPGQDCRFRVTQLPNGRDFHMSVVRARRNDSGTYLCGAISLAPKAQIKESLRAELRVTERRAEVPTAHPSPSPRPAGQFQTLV

Row | IC50 [1] | Ki [2] | Binder
1 | 3700 nM | – | RWCARRDYRFDMGFDYWGWE [peptide 1c]
2 | 290 nM | 41 nM | RWVARRDYRFDMGFDYWVWE [hairpin 1e]
